{
  "source": "patent US20080242557A1",
  "about": "“System For Detecting Molecular Interactions” (CGK CO., LTD., priority 2004, published 2008)",
  "key": {"Caspase-3": {"target": "T1, Caspase-3 (Homo sapiens, UniProt P42574)", "T1 construct": "mRFP (N); expressed in transfected cells; host or cells: HeLa", "T1 sequence (P42574 29-277)": "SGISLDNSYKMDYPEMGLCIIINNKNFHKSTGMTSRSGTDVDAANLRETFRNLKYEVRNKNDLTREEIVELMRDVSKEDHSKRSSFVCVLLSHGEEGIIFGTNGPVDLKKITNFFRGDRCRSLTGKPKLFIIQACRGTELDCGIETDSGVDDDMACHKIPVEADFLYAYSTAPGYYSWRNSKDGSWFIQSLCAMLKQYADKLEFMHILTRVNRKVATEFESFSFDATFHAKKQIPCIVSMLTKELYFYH", "test": "Magnetic-field translocation of mRFP-Caspase3 by DEVD-MNPs in HeLa cells", "assay_type": "cell-based", "settings": "EGFP expressing cells as negative control showed no motion", "method": "A DEVD-MNPs complex was obtained by reacting a Streptavidin nanoparticle, caspase-3 inhibitor II (DEVD)-biotin conjugate (CALBIOCHEM) and TATHA2-biotin at 40 C for 1 hr while agitating the reaction mixture. Unbound ligands were removed from the reaction mixture by purifying the complex using a paramagnet. After introducing mRFP-Caspase3 or EGFP expressing plasmid into a HeLa cell (ATCC), the cell was incubated. The DEVD-MNPs were introduced into the cell, and a magnetic field (M.F.) was externally applied to the cell using a paramagnet or electromagnet. The confocal images were captured using a confocal laser microscope (Carl Zeiss) for the live cells while applying magnetic field as well as not applying magnetic field."}, "[1]": {"test_system": "IκBα phosphorylation (IKK)", "test": "Detection of IκBα phosphorylation: translocation of IκBα-mRFP with anti-phospho-IκBα (Ser32)-MNPs in HeLa cells", "assay_type": "cell-based", "settings": "HeLa cells treated with various chemical compounds and growth factors"}},
  "data": [
    {"substance": "DEVD-MNPs: Streptavidin nanoparticle reacted with caspase-3 inhibitor II (DEVD)-biotin conjugate and TATHA2-biotin", "values": [
      {"measurement": "localization of cells expressing mRFP-Caspase3 by external magnetic force", "setting": "Caspase-3", "value": "only the cells (indicated with red arrows) expressing mRFP-Caspase3 were localized"}
    ]},
    {"substance": "TNF-α", "values": [
      {"measurement": "translocation of the IκBα-mRFP fusion protein under the magnetic field (interaction activator screening)", "setting": "[1]", "value": "observed to translocate the IκBα-mRFP fusion protein"}
    ]}
  ]
}
